The results in this text go back to article PMC6828814, “A cryptic hydrophobic pocket in the polo-box domain of the polo-like kinase PLK1 regulates substrate recognition and mitotic chromosome segregation” (Scientific Reports, 2019).

Experiment [1] addresses PLK1 (UniProt P53350). Briefly: V5 co-IP, immunoblot. The following applies: reference: PBIP1Wt-V5; sites T78. For orientation: In western blotting, separated proteins are transferred to a membrane and probed.
Experiment [2] concerns the target T1, PLK1 (polo-like kinase 1) polo-box domain (Homo sapiens, UniProt P53350).
T1 construct: polo-box domain (PBD), recombinant
Briefly: crystal structure (soaking) and competitive fluorescence polarisation with TAMRA-labelled PBIP1 phosphopeptide. Format: binding. On the technique in general: Polarisation of emitted light reports the rotation of a fluorescent probe.

Experiment [3] deals with PLK1 (UniProt P53350). Briefly: GFP-Trap co-IP, anti-NEDD1 immunoblot. The note with it: reference: GFP-PLK1Wt.

T1 sequence (P53350 367-603 limits assumed): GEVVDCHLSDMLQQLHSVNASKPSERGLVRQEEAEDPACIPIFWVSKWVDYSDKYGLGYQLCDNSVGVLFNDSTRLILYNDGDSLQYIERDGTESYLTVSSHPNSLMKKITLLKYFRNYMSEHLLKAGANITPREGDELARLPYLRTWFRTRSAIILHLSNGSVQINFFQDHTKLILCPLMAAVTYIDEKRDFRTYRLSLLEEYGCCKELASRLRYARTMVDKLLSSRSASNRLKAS

Take “PBIP1 (Polo-Box Interacting Protein 1) (from UniProt Q71F23) PBIP1-T78A-V5”: the “other: IP band intensity normalised to input” value in experiment [1] is listed as “weaker; reference 2.5”.

As for `O=C(Nc1cccc(C(C(=O)O)C(=O)O)c1)c1ccc(C(=O)c2cccc(I)c2)s1` [Polotyrin], the IC50 in experiment [2] worked out at 115 ± 24 µM.

Turning to “NEDD1 (from UniProt Q8NHV4) GFP-PLK1AM (H538A/K540M)”, the “other: IP band intensity normalised to input” value in experiment [3] is “lost; reference 0.2”.

As a reminder, the IC50 is the concentration at which inhibition is half-maximal. A higher IC50 goes with weaker potency.
